# T1: chloroplast ATP synthase (CF1FO) γ subunit (Spinacia oleracea, UniProt P05435 42-364, disulfide γCys240-γCys246 in the oxidized (IBZ) sample; free cysteines in the reduced (DTT) sample)
# T1 construct: ATP synthase gamma chain, chloroplastic, Spinacia oleracea; endogenous subunit of the purified complex; One molecule for both redox states; also called central shaft γ subunit; source: purified from spinach leaves as part of the CF1FO complex (ammonium sulfate, sucrose gradient, anion exchange, SEC)
# T1 sequence (looked up): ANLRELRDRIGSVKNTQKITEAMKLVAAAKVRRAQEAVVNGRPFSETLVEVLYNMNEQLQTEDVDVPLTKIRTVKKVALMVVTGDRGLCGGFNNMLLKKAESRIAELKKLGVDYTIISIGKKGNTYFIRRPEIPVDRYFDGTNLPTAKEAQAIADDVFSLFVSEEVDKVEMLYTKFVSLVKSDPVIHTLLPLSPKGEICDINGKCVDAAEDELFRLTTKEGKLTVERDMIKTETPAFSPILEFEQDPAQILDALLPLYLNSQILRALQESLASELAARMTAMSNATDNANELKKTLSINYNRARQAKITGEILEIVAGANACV
# B1: chloroplast ATP synthase (CF1FO) subunit c (c14 ring) (natural protein, Spinacia oleracea, UniProt P69447 1-81, looked up)
# chain: MNPLIAAASVIAAGLAVGLASIGPGVGQGTAAGQAVEGIARQPEAEGKIRGTLLLSLAFMEALTIYGLVVALALLFANPFV
# notes: ATP synthase subunit c, chloroplastic, Spinacia oleracea; endogenous subunit of the purified complex; also called c ring; c-ring rotor; source: purified from spinach leaves as part of the CF1FO complex (ammonium sulfate, sucrose gradient, anion exchange, SEC); copies: 14
# B2: chloroplast ATP synthase (CF1FO) ε subunit (natural protein, Spinacia oleracea, UniProt P00833 1-134, looked up)
# chain: MTLNLCVLTPNRSIWNSEVKEIILSTNSGQIGVLPNHAPTATAVDIGILRIRLNDQWLTLALMGGFARIGNNEITILVNDAERGSDIDPQEAQQTLEIAEANLRKAEGKRQKIEANLALRRARTRVEASNTISS
# notes: ATP synthase epsilon chain, chloroplastic, Spinacia oleracea; endogenous subunit of the purified complex; source: purified from spinach leaves as part of the CF1FO complex (ammonium sulfate, sucrose gradient, anion exchange, SEC)
# Experiments:
# cryo-EM structure = biological target: the molecule itself; assay: cryo-EM structure
# [1] = biological target: T1, chloroplast ATP synthase (CF1FO) γ …; assay: cryo-EM structure; conditions: both partners purified
binder,measurement,setting,value
B1,stoichiometry N,cryo-EM structure,14
B2,binding result,[1],binds

# From PMC7468127, “Structural basis of redox modulation on chloroplast ATP synthase” (Communications Biology, 2020)
